# Experimental data published in the Human Domainome abundance scans (Beltran et al. 2025).
# ± gives the uncertainty stated by the source.
# B1: Nuclear receptor subfamily 1 group D member 2, residues 103 to 171; numbered along this chain, Q14995 (parent)
# chain: CKVCGDVASGFHYGVHACEGCKGFFRRSIQQNIQYKKCLKNENCSIMRMNRNRCQQCRFKKCLSVGMSR
# Variants of: B1
# Assay: abundance fitness (aPCA) (normalised: wild type 0, dead -1); higher = more abundant; growth selection in yeast, the domain comes from the species named
# Conditions: Homo sapiens
row,Variant,abundance fitness
1,CKVCGDVYSGFHYGVHACEGCKGFFRRSIQQNIQYKKCLKNENCSIMRMNRNRCQQCRFKKCLSVGMSR,-0.782 ± 0.3
2,CKVCGDVASGFHYGVHECEGCKGFFRRSIQQNIQYKKCLKNENCSIMRMNRNRCQQCRFKKCLSVGMSR,-0.805 ± 0.15
3,CKVCGDVASGFHYGVHMCEGCKGFFRRSIQQNIQYKKCLKNENCSIMRMNRNRCQQCRFKKCLSVGMSR,-0.89 ± 0.21
4,CKVCGDVASGFHYGVHNCEGCKGFFRRSIQQNIQYKKCLKNENCSIMRMNRNRCQQCRFKKCLSVGMSR,-0.422 ± 0.43
5,CKVCGDVASGFHYGVHCCEGCKGFFRRSIQQNIQYKKCLKNENCSIMRMNRNRCQQCRFKKCLSVGMSR,0.092 ± 0.041
6,CKVCGDVASGFHYGVHLCEGCKGFFRRSIQQNIQYKKCLKNENCSIMRMNRNRCQQCRFKKCLSVGMSR,-0.666 ± 0.14
7,CKVCGDVASGFHYGVMACEGCKGFFRRSIQQNIQYKKCLKNENCSIMRMNRNRCQQCRFKKCLSVGMSR,0.123 ± 0.079
8,CKVCGDVASGFHYGVPACEGCKGFFRRSIQQNIQYKKCLKNENCSIMRMNRNRCQQCRFKKCLSVGMSR,-0.085 ± 0.091
9,CKVCGDVASGFHYGVYACEGCKGFFRRSIQQNIQYKKCLKNENCSIMRMNRNRCQQCRFKKCLSVGMSR,-0.096 ± 0.075
10,CKVCGDVASGFHYGVKACEGCKGFFRRSIQQNIQYKKCLKNENCSIMRMNRNRCQQCRFKKCLSVGMSR,-0.501 ± 0.15
11,CKVCGDVASGFHYGVCACEGCKGFFRRSIQQNIQYKKCLKNENCSIMRMNRNRCQQCRFKKCLSVGMSR,-0.411 ± 0.12
12,CKVCGDVASGFHYGVAACEGCKGFFRRSIQQNIQYKKCLKNENCSIMRMNRNRCQQCRFKKCLSVGMSR,-0.169 ± 0.055
13,CKVCGDVASGFHYGVIACEGCKGFFRRSIQQNIQYKKCLKNENCSIMRMNRNRCQQCRFKKCLSVGMSR,-0.306 ± 0.15
14,CKVCGDVASGFHYGVNACEGCKGFFRRSIQQNIQYKKCLKNENCSIMRMNRNRCQQCRFKKCLSVGMSR,-0.297 ± 0.19
15,CKVCGDVASGFHYGVGACEGCKGFFRRSIQQNIQYKKCLKNENCSIMRMNRNRCQQCRFKKCLSVGMSR,-0.412 ± 0.073
16,CKVCGDVASGFHYGVVACEGCKGFFRRSIQQNIQYKKCLKNENCSIMRMNRNRCQQCRFKKCLSVGMSR,-0.008 ± 0.059
17,CKVCGDVASGFHYGVTACEGCKGFFRRSIQQNIQYKKCLKNENCSIMRMNRNRCQQCRFKKCLSVGMSR,-0.1 ± 0.12
18,CKVCGDVASGFHYGVEACEGCKGFFRRSIQQNIQYKKCLKNENCSIMRMNRNRCQQCRFKKCLSVGMSR,0.219 ± 0.082
19,CKVCGDVASGFHYGVRACEGCKGFFRRSIQQNIQYKKCLKNENCSIMRMNRNRCQQCRFKKCLSVGMSR,-0.162 ± 0.067
20,CKVCGDVASGFHYGVLACEGCKGFFRRSIQQNIQYKKCLKNENCSIMRMNRNRCQQCRFKKCLSVGMSR,0.098 ± 0.056
21,CKVCGDVASGFHYGVFACEGCKGFFRRSIQQNIQYKKCLKNENCSIMRMNRNRCQQCRFKKCLSVGMSR,-0.062 ± 0.16
22,CKVCGDVASGFHYGVDACEGCKGFFRRSIQQNIQYKKCLKNENCSIMRMNRNRCQQCRFKKCLSVGMSR,0.264 ± 0.098
23,CKVCGDVAYGFHYGVHACEGCKGFFRRSIQQNIQYKKCLKNENCSIMRMNRNRCQQCRFKKCLSVGMSR,-0.49 ± 0.4
24,CKVCGDVASGFRYGVHACEGCKGFFRRSIQQNIQYKKCLKNENCSIMRMNRNRCQQCRFKKCLSVGMSR,-0.732 ± 0.13
25,CKVCGDVASGFGYGVHACEGCKGFFRRSIQQNIQYKKCLKNENCSIMRMNRNRCQQCRFKKCLSVGMSR,-0.421 ± 0.075
26,CKVCGDVASGFIYGVHACEGCKGFFRRSIQQNIQYKKCLKNENCSIMRMNRNRCQQCRFKKCLSVGMSR,-0.747 ± 0.33

row,Variant,abundance fitness
1,CKVCGDVASGFMYGVHACEGCKGFFRRSIQQNIQYKKCLKNENCSIMRMNRNRCQQCRFKKCLSVGMSR,-0.936 ± 0.28
2,CKVCGDVASGFYYGVHACEGCKGFFRRSIQQNIQYKKCLKNENCSIMRMNRNRCQQCRFKKCLSVGMSR,-0.253 ± 0.12
3,CKVCGDVASGFNYGVHACEGCKGFFRRSIQQNIQYKKCLKNENCSIMRMNRNRCQQCRFKKCLSVGMSR,-0.161 ± 0.17
4,CKVCGDVASGFEYGVHACEGCKGFFRRSIQQNIQYKKCLKNENCSIMRMNRNRCQQCRFKKCLSVGMSR,-0.587 ± 0.2
5,CKVCGDVASGFQYGVHACEGCKGFFRRSIQQNIQYKKCLKNENCSIMRMNRNRCQQCRFKKCLSVGMSR,-0.568 ± 0.2
6,CKVCGDVASGFSYGVHACEGCKGFFRRSIQQNIQYKKCLKNENCSIMRMNRNRCQQCRFKKCLSVGMSR,-0.301 ± 0.077
7,CKVCGDVASGFDYGVHACEGCKGFFRRSIQQNIQYKKCLKNENCSIMRMNRNRCQQCRFKKCLSVGMSR,-0.44 ± 0.13
8,CKVCGDVASGFFYGVHACEGCKGFFRRSIQQNIQYKKCLKNENCSIMRMNRNRCQQCRFKKCLSVGMSR,-0.514 ± 0.16
9,CKVCGDVASGFAYGVHACEGCKGFFRRSIQQNIQYKKCLKNENCSIMRMNRNRCQQCRFKKCLSVGMSR,-0.28 ± 0.081
10,CKVCGDVASGFWYGVHACEGCKGFFRRSIQQNIQYKKCLKNENCSIMRMNRNRCQQCRFKKCLSVGMSR,0.033 ± 0.08
11,CKVCGDVASGFTYGVHACEGCKGFFRRSIQQNIQYKKCLKNENCSIMRMNRNRCQQCRFKKCLSVGMSR,-0.546 ± 0.15
12,CKVCGDVASGFPYGVHACEGCKGFFRRSIQQNIQYKKCLKNENCSIMRMNRNRCQQCRFKKCLSVGMSR,-0.835 ± 0.22
13,CKVCGDVASGFHYGPHACEGCKGFFRRSIQQNIQYKKCLKNENCSIMRMNRNRCQQCRFKKCLSVGMSR,-0.67 ± 0.094
14,CKVCGDVASGFHYGLHACEGCKGFFRRSIQQNIQYKKCLKNENCSIMRMNRNRCQQCRFKKCLSVGMSR,-0.3 ± 0.1
15,CKVCGDVASGFHYGRHACEGCKGFFRRSIQQNIQYKKCLKNENCSIMRMNRNRCQQCRFKKCLSVGMSR,-0.819 ± 0.1
16,CKVCGDVASGFHYGSHACEGCKGFFRRSIQQNIQYKKCLKNENCSIMRMNRNRCQQCRFKKCLSVGMSR,-0.954 ± 0.18
17,CKVCGDVASGFHYGTHACEGCKGFFRRSIQQNIQYKKCLKNENCSIMRMNRNRCQQCRFKKCLSVGMSR,-0.961 ± 0.47
18,CKVCGDVASGFHYGYHACEGCKGFFRRSIQQNIQYKKCLKNENCSIMRMNRNRCQQCRFKKCLSVGMSR,-0.492 ± 0.38
19,CKVCGDVASGFHYGNHACEGCKGFFRRSIQQNIQYKKCLKNENCSIMRMNRNRCQQCRFKKCLSVGMSR,-0.954 ± 0.35
20,CKVCGDVASGFHYGEHACEGCKGFFRRSIQQNIQYKKCLKNENCSIMRMNRNRCQQCRFKKCLSVGMSR,-0.679 ± 0.17
21,CKVCGDVASGFHYGIHACEGCKGFFRRSIQQNIQYKKCLKNENCSIMRMNRNRCQQCRFKKCLSVGMSR,-0.327 ± 0.16
22,CKVCGDVASGFHYGDHACEGCKGFFRRSIQQNIQYKKCLKNENCSIMRMNRNRCQQCRFKKCLSVGMSR,-0.746 ± 0.33
23,CKVCGDVASGFHYGGHACEGCKGFFRRSIQQNIQYKKCLKNENCSIMRMNRNRCQQCRFKKCLSVGMSR,-0.546 ± 0.08
24,CKVCGDVASGFHYGQHACEGCKGFFRRSIQQNIQYKKCLKNENCSIMRMNRNRCQQCRFKKCLSVGMSR,-0.744 ± 0.2
25,CKVCGDVASGFHYGMHACEGCKGFFRRSIQQNIQYKKCLKNENCSIMRMNRNRCQQCRFKKCLSVGMSR,-0.753 ± 0.15
26,CKVCGDVASGFHYGCHACEGCKGFFRRSIQQNIQYKKCLKNENCSIMRMNRNRCQQCRFKKCLSVGMSR,-0.623 ± 0.21

row,Variant,abundance fitness
1,CKVCGDVASGFHYLVHACEGCKGFFRRSIQQNIQYKKCLKNENCSIMRMNRNRCQQCRFKKCLSVGMSR,-0.898 ± 0.18
2,CKVCGDVASGFHYTVHACEGCKGFFRRSIQQNIQYKKCLKNENCSIMRMNRNRCQQCRFKKCLSVGMSR,-0.828 ± 0.38
3,CKVCGDVASGFHYFVHACEGCKGFFRRSIQQNIQYKKCLKNENCSIMRMNRNRCQQCRFKKCLSVGMSR,-0.558 ± 0.41
4,CKVCGDVASGFHYDVHACEGCKGFFRRSIQQNIQYKKCLKNENCSIMRMNRNRCQQCRFKKCLSVGMSR,-0.579 ± 0.49
5,CKVCGDVASGFHYPVHACEGCKGFFRRSIQQNIQYKKCLKNENCSIMRMNRNRCQQCRFKKCLSVGMSR,-0.835 ± 0.24
6,CKVCGDVASGFHYWVHACEGCKGFFRRSIQQNIQYKKCLKNENCSIMRMNRNRCQQCRFKKCLSVGMSR,-0.878 ± 0.22
7,CKVCGDVASGFHYSVHACEGCKGFFRRSIQQNIQYKKCLKNENCSIMRMNRNRCQQCRFKKCLSVGMSR,-0.291 ± 0.11
8,CKVCGDVASGFHYAVHACEGCKGFFRRSIQQNIQYKKCLKNENCSIMRMNRNRCQQCRFKKCLSVGMSR,-0.871 ± 0.23
9,CKVCGDVASGFHYMVHACEGCKGFFRRSIQQNIQYKKCLKNENCSIMRMNRNRCQQCRFKKCLSVGMSR,-0.759 ± 0.2
10,CKVCGDVASVFHYGVHACEGCKGFFRRSIQQNIQYKKCLKNENCSIMRMNRNRCQQCRFKKCLSVGMSR,-0.119 ± 0.38
11,CKVCGDVASDFHYGVHACEGCKGFFRRSIQQNIQYKKCLKNENCSIMRMNRNRCQQCRFKKCLSVGMSR,-0.433 ± 0.22
12,CKVCGDVASGFHCGVHACEGCKGFFRRSIQQNIQYKKCLKNENCSIMRMNRNRCQQCRFKKCLSVGMSR,-0.496 ± 0.1
13,CKVCGDVASGFHFGVHACEGCKGFFRRSIQQNIQYKKCLKNENCSIMRMNRNRCQQCRFKKCLSVGMSR,0.059 ± 0.089
14,CKVCGDVASGFHTGVHACEGCKGFFRRSIQQNIQYKKCLKNENCSIMRMNRNRCQQCRFKKCLSVGMSR,-0.572 ± 0.089
15,CKVCGDVASGFHSGVHACEGCKGFFRRSIQQNIQYKKCLKNENCSIMRMNRNRCQQCRFKKCLSVGMSR,-0.576 ± 0.071
16,CKVCGDVASGFHVGVHACEGCKGFFRRSIQQNIQYKKCLKNENCSIMRMNRNRCQQCRFKKCLSVGMSR,-0.528 ± 0.087
17,CKVCGDVASGFHMGVHACEGCKGFFRRSIQQNIQYKKCLKNENCSIMRMNRNRCQQCRFKKCLSVGMSR,-0.732 ± 0.16
18,CKVCGDVASGFHHGVHACEGCKGFFRRSIQQNIQYKKCLKNENCSIMRMNRNRCQQCRFKKCLSVGMSR,-0.145 ± 0.15
19,CKVCGDVASGFHEGVHACEGCKGFFRRSIQQNIQYKKCLKNENCSIMRMNRNRCQQCRFKKCLSVGMSR,-0.099 ± 0.093
20,CKVCGDVASGFHKGVHACEGCKGFFRRSIQQNIQYKKCLKNENCSIMRMNRNRCQQCRFKKCLSVGMSR,-0.491 ± 0.1
21,CKVCGDVASGFHWGVHACEGCKGFFRRSIQQNIQYKKCLKNENCSIMRMNRNRCQQCRFKKCLSVGMSR,-0.152 ± 0.065
22,CKVCGDVASGFHIGVHACEGCKGFFRRSIQQNIQYKKCLKNENCSIMRMNRNRCQQCRFKKCLSVGMSR,-0.73 ± 0.12
23,CKVCGDVASGFHLGVHACEGCKGFFRRSIQQNIQYKKCLKNENCSIMRMNRNRCQQCRFKKCLSVGMSR,-0.453 ± 0.078
24,CKVCGDVASGFHPGVHACEGCKGFFRRSIQQNIQYKKCLKNENCSIMRMNRNRCQQCRFKKCLSVGMSR,-0.89 ± 0.16
25,CKVCGDVASGFHQGVHACEGCKGFFRRSIQQNIQYKKCLKNENCSIMRMNRNRCQQCRFKKCLSVGMSR,-0.615 ± 0.13
26,CKVCGDVASGFHAGVHACEGCKGFFRRSIQQNIQYKKCLKNENCSIMRMNRNRCQQCRFKKCLSVGMSR,-0.459 ± 0.09
